Experimental data published in the supplement of paper PMC10724198.
± gives the standard deviation of the averaged measurements.

Tested on: Saccharomyces cerevisiae
Assay: protein stability index of tFT-peptide fusion (C-terminal peptide) (PSI (0-1 scale)); higher = more stable (slower turnover)
Settings: temperature: 30 C
Method: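 MPS profiling in S. cerevisiae of the yeast C-terminome library: the last 12 aa of each annotated ORF are fused to the C-terminus of a sfGFP-mCherry timer, after a GGGS linker. Cells are FACS-sorted into 8 mCherry/sfGFP bins and deep-sequenced. PSI runs from 0 (unstable) to 1 (stable); wild type and das1Δ backgrounds, two technical replicates each.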

[1] = genetic background: das1 deletion

Sequence | protein stability index [1] | protein stability index (genetic background: wild type)
NIRIVNGLQNTR [TIM8 C-terminal 12 aa] | 0.712 ± 0.014 | 0.669 ± 0.011
NKIANFVKNAKK [TRP1 C-terminal 12 aa] | 0.708 ± 0.02 | 0.701 ± 0.029
NKLKTLLAKIFD [IPI1 C-terminal 12 aa] | 0.708 ± 0.02 | 0.699 ± 0.053
NPGFIVEKRTID [MRPL33 C-terminal 12 aa] | 0.697 ± 0.035 | 0.737 ± 0.0098
NPKNLINDVRRT [CVM1 C-terminal 12 aa] | 0.704 ± 0.011 | 0.635 ± 0.025
NPPISVSVTGDE [SRT1 C-terminal 12 aa] | 0.687 ± 0.0084 | 0.6978 ± 0.0036
NPWGGYSQVQSK [COX5A C-terminal 12 aa] | 0.728 ± 0.02 | 0.688 ± 0.018
NQGSDVSFNEED [TOP2 C-terminal 12 aa] | 0.709 ± 0.02 | 0.685 ± 0.045
NQIIQARLKDLE [DNF3 C-terminal 12 aa] | 0.686 ± 0.021 | 0.6964 ± 0.0035
NQKKKFKMEFRG [SAP30 C-terminal 12 aa] | 0.6956 ± 0.0027 | 0.665 ± 0.0075
NRKIARMRHSKR [NUP1 C-terminal 12 aa] | 0.706 ± 0.022 | 0.7119 ± 0.007
NRSSKIVSIRED [CPR8 C-terminal 12 aa] | 0.702 ± 0.03 | 0.714 ± 0.028
NTDHKAGRSHLQ [PTC2 C-terminal 12 aa] | 0.713 ± 0.013 | 0.668 ± 0.038
NTEPPEAPAATN [AFG3 C-terminal 12 aa] | 0.73 ± 0.032 | 0.668 ± 0.028
NTGSKKSVPTSS [AQY3 C-terminal 12 aa] | 0.7037 ± 0.0017 | 0.732 ± 0.068
NTTHYNDTLLKQ [PHO3 C-terminal 12 aa] | 0.738 ± 0.0097 | 0.6619 ± 0.0058
NYLVYHIEEENH [MNN9 C-terminal 12 aa] | 0.673 ± 0.031 | 0.645 ± 0.052
PAAWRALTQYIS [PTH1 C-terminal 12 aa] | 0.7186 ± 0.0024 | 0.348 ± 0.029
PCALYFKDHTAY [HUA2 C-terminal 12 aa] | 0.699 ± 0.021 | 0.7209 ± 0.0011
PDDFEFGDDDFM [HCR1 C-terminal 12 aa] | 0.712 ± 0.031 | 0.763 ± 0.041
PEHPGNKRAGSG [YER145C-A C-terminal 12 aa] | 0.6885 ± 0.00081 | 0.6979 ± 0.0024

Sequence | protein stability index [1] | protein stability index (genetic background: wild type)
PFDYSDIPAADI [GPI10 C-terminal 12 aa] | 0.714 ± 0.023 | 0.698 ± 0.019
PFEDKFEIHDER [OPY2 C-terminal 12 aa] | 0.74255 ± 0.00063 | 0.7692 ± 0.00091
PIDPKAFTFDSR [YCL012C C-terminal 12 aa] | 0.73549 ± 0.00064 | 0.73 ± 0.016
PIQDFIFNLVGE [VTC3 C-terminal 12 aa] | 0.687 ± 0.0086 | 0.6981 ± 0.0027
PKSFVPRDIEKK [YGR265W C-terminal 12 aa] | 0.695 ± 0.018 | 0.701 ± 0.056
PLFADYLNKNLN [KTI12 C-terminal 12 aa] | 0.7162 ± 0.0014 | 0.671 ± 0.014
PLQWLSTWDIAP [PMT6 C-terminal 12 aa] | 0.787 ± 0.02 | 0.757 ± 0.021
PLSYDPLGNLIR [TSR3 C-terminal 12 aa] | 0.7339 ± 0.0027 | 0.728 ± 0.061
PLTLISLLFAFI [YPS1 C-terminal 12 aa] | 0.619 ± 0.021 | 0.612 ± 0.0015
PNEFLRDQSTDI [APL5 C-terminal 12 aa] | 0.707 ± 0.031 | 0.66 ± 0.02
PQCGQVLSKGST [YGL132W C-terminal 12 aa] | 0.703 ± 0.0092 | 0.69 ± 0.063
PQMARKQRGHIG [SDS23 C-terminal 12 aa] | 0.678 ± 0.024 | 0.681 ± 0.0087
PSGNIVMERLDE [UBX3 C-terminal 12 aa] | 0.6901 ± 0.0013 | 0.64 ± 0.021
PSIARILEFMQS [SAY1 C-terminal 12 aa] | 0.729 ± 0.013 | 0.654 ± 0.09
PVFTASQLRFAW [ESA1 C-terminal 12 aa] | 0.738 ± 0.018 | 0.7148 ± 0.0046
PVGAGNEPINPE [URN1 C-terminal 12 aa] | 0.684 ± 0.013 | 0.704 ± 0.074
PVTAIALLEARR [YER190C-A C-terminal 12 aa] | 0.6783 ± 0.005 | 0.65 ± 0.01
PYNFIQLLHQGL [HOF1 C-terminal 12 aa] | 0.725 ± 0.011 | 0.709 ± 0.012
QAYIYIYIHIVN [EST2 C-terminal 12 aa] | 0.195 ± 0.0094 | 0.0717 ± 0.017
QEEEEDVATDSE [YRO2 C-terminal 12 aa] | 0.677 ± 0.014 | 0.711 ± 0.034
QEIQKKPSQQVS [BIG1 C-terminal 12 aa] | 0.698 ± 0.0083 | 0.683 ± 0.066

Sequence | protein stability index [1] | protein stability index (genetic background: wild type)
QFFLAPKFNDEE [POL30 C-terminal 12 aa] | 0.712 ± 0.032 | 0.705 ± 0.023
QFQTLNNLYFAQ [IME4 C-terminal 12 aa] | 0.715 ± 0.02 | 0.673 ± 0.044
QGHGPVSPSPTK [PTM1 C-terminal 12 aa] | 0.701 ± 0.022 | 0.723 ± 0.086
QGPRPGNWDQED [CCT8 C-terminal 12 aa] | 0.7177 ± 0.0017 | 0.678 ± 0.016
QGYKPNQSDRYY [PIN2 C-terminal 12 aa] | 0.68 ± 0.013 | 0.711 ± 0.044
QHYDEYYHELTN [PHO8 C-terminal 12 aa] | 0.6964 ± 0.0064 | 0.68262 ± 0.00046
QIEWVDINRVTY [RAD50 C-terminal 12 aa] | 0.732 ± 0.014 | 0.735 ± 0.052
QIFSLPAVTYNK [REC102 C-terminal 12 aa] | 0.693 ± 0.018 | 0.743 ± 0.055
QIITISNANSHA [MBP1 C-terminal 12 aa] | 0.705 ± 0.026 | 0.688 ± 0.038
QKENQYHPRRNQ [YML009W-B C-terminal 12 aa] | 0.7123 ± 0.0032 | 0.691 ± 0.039
QLEEELMDMLDD [FCP1 C-terminal 12 aa] | 0.674 ± 0.01 | 0.6692 ± 0.0016
QLESDPPPCDDY [RIM8 C-terminal 12 aa] | 0.7171 ± 0.0053 | 0.689 ± 0.039
QLKACQEAARQY [MIX17 C-terminal 12 aa] | 0.675 ± 0.025 | 0.66 ± 0.031
QLKKSKVSVELE [MAK11 C-terminal 12 aa] | 0.6803 ± 0.0023 | 0.687 ± 0.047
QNADEESSSEEE [GCD6 C-terminal 12 aa] | 0.694 ± 0.011 | 0.6858 ± 0.0019
QNEQLQMLSNSV [ATG31 C-terminal 12 aa] | 0.723 ± 0.028 | 0.673 ± 0.046
QNLDENVWRTPI [SSP1 C-terminal 12 aa] | 0.692 ± 0.011 | 0.672 ± 0.032
QPYRSGTLGKRR [AIR2 C-terminal 12 aa] | 0.674 ± 0.035 | 0.6998 ± 0.004
QREEALISLNDW [REV3 C-terminal 12 aa] | 0.726 ± 0.016 | 0.713 ± 0.025
QRELKKVDGTPI [RCI50 C-terminal 12 aa] | 0.6851 ± 0.0065 | 0.741 ± 0.0098
QRIKQNNFLSQL [MRPL37 C-terminal 12 aa] | 0.7 ± 0.016 | 0.731 ± 0.05

Sequence | protein stability index [1] | protein stability index (genetic background: wild type)
QSADAAGVVKKH [GCN20 C-terminal 12 aa] | 0.683 ± 0.011 | 0.726 ± 0.028
QSLLDSLAKLQK [NAB3 C-terminal 12 aa] | 0.667 ± 0.009 | 0.678 ± 0.022
QSRYDNSRANRR [RAT1 C-terminal 12 aa] | 0.7257 ± 0.0043 | 0.731 ± 0.099
QTNSKPAAVSTN [PLN1 C-terminal 12 aa] | 0.6745 ± 0.003 | 0.668 ± 0.02
QTSAKISIRLLY [SER3 C-terminal 12 aa] | 0.6607 ± 0.00096 | 0.582 ± 0.0062
QTSAKVSIRLLY [SER33 C-terminal 12 aa] | 0.659 ± 0.034 | 0.595 ± 0.0064
RAGRSTLKETPQ [CCT6 C-terminal 12 aa] | 0.673 ± 0.018 | 0.692 ± 0.071
RAMNEDETLRNL [ORC1 C-terminal 12 aa] | 0.6957 ± 0.0042 | 0.746 ± 0.012
RCGALSEKLVFL [FMT1 C-terminal 12 aa] | 0.694 ± 0.011 | 0.697 ± 0.013
RDLPSVLAKYGF [RRG1 C-terminal 12 aa] | 0.7236 ± 0.0048 | 0.703 ± 0.04
RDNPILLEDEDP [ULP2 C-terminal 12 aa] | 0.708 ± 0.022 | 0.6747 ± 0.00092
REDDDEPASLDF [PRI1 C-terminal 12 aa] | 0.697 ± 0.0043 | 0.6533 ± 0.0064
REVLEQEGRRIE [NBL1 C-terminal 12 aa] | 0.69 ± 0.0073 | 0.693 ± 0.054
RILKDEIPIGED [BET3 C-terminal 12 aa] | 0.702 ± 0.017 | 0.659 ± 0.0079
RIYDFFQSQNWM [ADA2 C-terminal 12 aa] | 0.7311 ± 0.0031 | 0.7058 ± 0.0047
RKAAERDNMLTT [CTL1 C-terminal 12 aa] | 0.704 ± 0.015 | 0.706 ± 0.0072
RKDEHIVQNIIN [YGR164W C-terminal 12 aa] | 0.6993 ± 0.0033 | 0.681 ± 0.029
RKFQPPPGFKRK [SMB1 C-terminal 12 aa] | 0.724 ± 0.017 | 0.74 ± 0.047
RLKTGKKKGGPK [RRP14 C-terminal 12 aa] | 0.6909 ± 0.0054 | 0.766 ± 0.13
RLPRSFLFLNKK [YOR343C C-terminal 12 aa] | 0.723 ± 0.01 | 0.665 ± 0.028
